Reference: the supplement of paper PMC9233669
This sample holds only a part of the variants without activity.

Key:
biotinyl-Ile-oxazolone = assay: self-aminoacylation, catalytic enhancement (BIO) (fold over background); higher = more active; k-Seq, kA / k0A0; sequences stand for … in GGGAAUGGAUCCACAUCUACGAAUUC…UUCACUGCAGACUUGACGAAGCUG
Outline: (§1)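 The uncatalyzed rate is the low-activity peak of a bimodal Gaussian fit, and catalytic enhancement is median kA divided by it. The kA values came from pseudo-first-order fits, with 1000 bootstraps, of per-sequence fraction reacted measured by streptavidin capture, triplicate qPCR and Illumina sequencing. Mutagenized RNA pools with a 21-nt variable region (0.43 μM) were reacted with each biotinyl-aminoacyl-oxazolone at 2–1250 μM in 50 μL HEPES/NaCl/KCl/MgCl2/CaCl2 buffer with 5% acetonitrile, pH 6.9–7.0, for 90 minutes at room temperature.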

biotinyl-Trp-oxazolone = assay: self-aminoacylation, catalytic enhancement (BWO) (fold over background); higher = more active; k-Seq, kA / k0A0; sequences stand for … in GGGAAUGGAUCCACAUCUACGAAUUC…UUCACUGCAGACUUGACGAAGCUG
Outline: as §1

biotinyl-Val-oxazolone = assay: self-aminoacylation, catalytic enhancement (BVO) (fold over background); higher = more active; k-Seq, kA / k0A0; sequences stand for … in GGGAAUGGAUCCACAUCUACGAAUUC…UUCACUGCAGACUUGACGAAGCUG
Outline: as §1

biotinyl-Leu-oxazolone = assay: self-aminoacylation, catalytic enhancement (BLO) (fold over background); higher = more active; k-Seq, kA / k0A0; sequences stand for … in GGGAAUGGAUCCACAUCUACGAAUUC…UUCACUGCAGACUUGACGAAGCUG
Outline: as §1

biotinyl-Phe-oxazolone = assay: self-aminoacylation, catalytic enhancement (BFO) (fold over background); higher = more active; k-Seq, kA / k0A0; sequences stand for … in GGGAAUGGAUCCACAUCUACGAAUUC…UUCACUGCAGACUUGACGAAGCUG
Outline: as §1

biotinyl-Met-oxazolone = assay: self-aminoacylation, catalytic enhancement (BMO) (fold over background); higher = more active; k-Seq, kA / k0A0; sequences stand for … in GGGAAUGGAUCCACAUCUACGAAUUC…UUCACUGCAGACUUGACGAAGCUG
Outline: as §1

Sequence | self-aminoacylation (biotinyl-Ile-oxazolone) | self-aminoacylation (biotinyl-Trp-oxazolone) | self-aminoacylation (biotinyl-Val-oxazolone) | self-aminoacylation (biotinyl-Leu-oxazolone) | self-aminoacylation (biotinyl-Phe-oxazolone) | self-aminoacylation (biotinyl-Met-oxazolone)
CUAGUUCAACCAAUCGGUCUG [Fam1A.1 aminoacylation ribozyme variant] | 1 | 2.82 | 0.913 | 1.06 | 3.36 | 0.955
CUAGUUGAAACAAUCGGUCUG [Fam1A.1 aminoacylation ribozyme variant] | 0.923 | 0.834 | 0.828 | 0.841 | 0.861 | 0.974
CUAUACUUCAAGCAAUCGGUC [Fam1B.1 aminoacylation ribozyme variant] | 0.782 | 9.69 | 0.936 | 1.06 | 21.3 | 0.837
CUAUCUCAAACAAUCGGUCUG [Fam1A.1 aminoacylation ribozyme variant] | 0.789 | 1.35 | 0.781 | 0.628 | 1.87 | 0.856
CUAUUUCAAACAAGCGGUCUG [Fam1A.1 aminoacylation ribozyme variant] | 1.01 | 0.77 | 0.933 | 1.02 | 0.738 | 0.882
CUAUUUCAAACACUCGGUCUG [Fam1A.1 aminoacylation ribozyme variant] | 0.995 | 0.925 | 0.921 | 0.875 | 1.36 | 0.95
CUAUUUCAAGCAAUCGGUCUG [Fam1A.1 aminoacylation ribozyme variant] | 0.881 | 0.883 | 0.795 | 0.996 | 1.61 | 0.741
CUAUUUCACACAAUCGGUCUG [Fam1A.1 aminoacylation ribozyme variant] | 0.88 | 0.617 | 0.774 | 0.766 | 0.675 | 0.848
CUAUUUCUAACAAUCGGUCUG [Fam1A.1 aminoacylation ribozyme variant] | 0.913 | 0.668 | 0.787 | 0.824 | 0.973 | 0.818
CUCCUUCAAAAAAUCGGUCUG [Fam1A.1 aminoacylation ribozyme variant] | 1.16 | 9.62 | 1.01 | 1.3 | 11.8 | 1.09
CUCCUUCAAACAAUCGAUCUG [Fam1A.1 aminoacylation ribozyme variant] | 0.586 | 1.2 | 0.705 | 0.589 | 2.82 | 0.571
CUCCUUCAAACAAUCGGUAUG [Fam1A.1 aminoacylation ribozyme variant] | 0.742 | 11.2 | 0.866 | 1.24 | 13.8 | 1.07
CUCCUUCAAACAAUCGGUCUC [Fam1A.1 aminoacylation ribozyme variant] | 1.11 | 26.2 | 0.933 | 1.75 | 40.8 | 1.19
CUCCUUCAAACAAUCGGUUUG [Fam1A.1 aminoacylation ribozyme variant] | 1.17 | 30.6 | 1.4 | 1.89 | 43.9 | 1.3
CUCCUUCAAACAAUCGUUCUG [Fam1A.1 aminoacylation ribozyme variant] | 0.51 | 0.785 | 0.631 | 0.472 | 1.68 | 0.501
CUCCUUCAAACAAUCUGUCUG [Fam1A.1 aminoacylation ribozyme variant] | 0.655 | 1.23 | 0.61 | 0.554 | 2.63 | 0.516
CUCCUUCACACAAUCGGUCUG [Fam1A.1 aminoacylation ribozyme variant] | 0.907 | 0.895 | 0.985 | 0.686 | 1.55 | 0.799
CUCCUUGAAACAAUCGGUCUG [Fam1A.1 aminoacylation ribozyme variant] | 1.1 | 1.73 | 1.19 | 1.18 | 1.25 | 1.31
CUCCUUUAAACAAUCGGUCUG [Fam1A.1 aminoacylation ribozyme variant] | 0.972 | 1.36 | 0.974 | 0.712 | 1.73 | 1.12
CUGCUUCAAACAACCGGUCUG [Fam1A.1 aminoacylation ribozyme variant] | 0.683 | 0.921 | 0.932 | 0.793 | 0.915 | 0.664
CUGCUUCAAACAAUCGGACUG [Fam1A.1 aminoacylation ribozyme variant] | 1.13 | 28.3 | 1.21 | 1.79 | 49.5 | 1.26
CUGCUUCAAACAAUCGGUCGG [Fam1A.1 aminoacylation ribozyme variant] | 1.48 | 59.6 | 1.71 | 3.72 | 183 | 2.05
CUGCUUCAAACAAUCGGUCUA [Fam1A.1 aminoacylation ribozyme variant] | 1.3 | 38.8 | 1.34 | 2.18 | 80.1 | 1.33
CUGCUUCAAACUAUCGGUCUG [Fam1A.1 aminoacylation ribozyme variant] | 0.856 | 0.937 | 1.07 | 0.976 | 1.35 | 0.752
CUGCUUCAAAGAAUCGGUCUG [Fam1A.1 aminoacylation ribozyme variant] | 1.04 | 11.7 | 0.891 | 1.39 | 14.5 | 1.19
